According to paper PMC9482650, “Quantitative fragmentomics allow affinity mapping of interactomes” (Nature Communications, 2022):
Positions count from the first letter of the chain named.

Columns and labels:
Assay in all cases: holdup assay
Set-up in all cases: key: below the threshold = too weak to quantify, mostly under pKd 3.1 to 4
MAGI2_2, Q86UL8 = target: MAGI2_2, Q86UL8
ARHGEF11, O15085 = target: T1, ARHGEF11, O15085
T1 sequence (O15085 42-136, limits assumed, looked up): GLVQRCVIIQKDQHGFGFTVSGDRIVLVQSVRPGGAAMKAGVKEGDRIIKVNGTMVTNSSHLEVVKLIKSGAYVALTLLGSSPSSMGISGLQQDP

MPP2, Q14168 = target: T2, MPP2, Q14168
T2 sequence (Q14168 180-250, limits assumed, looked up): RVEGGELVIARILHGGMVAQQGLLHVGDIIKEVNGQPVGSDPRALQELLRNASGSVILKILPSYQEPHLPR

SIPA1L2, Q9P2F8 = target: T3, SIPA1L2, Q9P2F8
T3 sequence (Q9P2F8 945-1036, limits assumed, looked up): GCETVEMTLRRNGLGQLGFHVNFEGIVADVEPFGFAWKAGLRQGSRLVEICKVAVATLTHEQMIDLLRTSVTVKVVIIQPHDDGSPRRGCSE

LNX2_3, Q8N448 = target: T4, LNX2_3, Q8N448
T4 sequence (Q8N448 463-564, limits assumed, looked up): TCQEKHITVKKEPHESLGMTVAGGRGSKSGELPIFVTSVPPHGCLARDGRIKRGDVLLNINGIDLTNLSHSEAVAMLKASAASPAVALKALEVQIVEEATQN

DVL3, Q92997 = target: T5, DVL3, Q92997
T5 sequence (Q92997 244-331, limits assumed, looked up): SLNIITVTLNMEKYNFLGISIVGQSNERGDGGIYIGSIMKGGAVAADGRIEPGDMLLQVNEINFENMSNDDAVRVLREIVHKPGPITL

HTRA2, O43464 = target: HTRA2, O43464
Sequence of HTRA2, O43464 (O43464 355-458): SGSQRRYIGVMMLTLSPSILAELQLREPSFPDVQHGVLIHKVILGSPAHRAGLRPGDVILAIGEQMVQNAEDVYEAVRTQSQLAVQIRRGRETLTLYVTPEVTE

ARHGAP21, Q5T5U3 = target: T6, ARHGAP21, Q5T5U3
T6 sequence (Q5T5U3 45-169, limits assumed, looked up): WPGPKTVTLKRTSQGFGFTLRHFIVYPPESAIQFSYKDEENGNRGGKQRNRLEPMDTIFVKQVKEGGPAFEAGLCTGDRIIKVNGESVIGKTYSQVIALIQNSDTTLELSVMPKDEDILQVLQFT

IL16_1, Q14005 = target: IL16_1, Q14005
Sequence of IL16_1, Q14005 (Q14005 210-306): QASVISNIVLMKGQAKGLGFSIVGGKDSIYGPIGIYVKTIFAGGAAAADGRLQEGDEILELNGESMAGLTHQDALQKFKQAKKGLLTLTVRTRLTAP

LIN7B, Q9HAP6 = target: T7, LIN7B, Q9HAP6
T7 sequence (Q9HAP6 88-185, limits assumed, looked up): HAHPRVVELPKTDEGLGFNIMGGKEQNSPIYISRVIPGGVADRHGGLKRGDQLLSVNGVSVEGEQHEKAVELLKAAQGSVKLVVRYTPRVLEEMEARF

MAST1, Q9Y2H9 = target: MAST1, Q9Y2H9
Sequence of MAST1, Q9Y2H9 (Q9Y2H9 962-1065): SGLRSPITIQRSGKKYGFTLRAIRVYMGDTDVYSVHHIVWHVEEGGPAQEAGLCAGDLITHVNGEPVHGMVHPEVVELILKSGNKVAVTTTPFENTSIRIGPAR

GRASP, Q7Z6J2 = target: GRASP, Q7Z6J2
Sequence of GRASP, Q7Z6J2 (Q7Z6J2 96-193): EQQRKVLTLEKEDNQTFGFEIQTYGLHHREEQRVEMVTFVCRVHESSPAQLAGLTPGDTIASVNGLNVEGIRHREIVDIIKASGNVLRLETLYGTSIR

GRIP2_6, Q9C0E4 = target: GRIP2_6, Q9C0E4
Sequence of GRIP2_6, Q9C0E4 (Q9C0E4 648-740): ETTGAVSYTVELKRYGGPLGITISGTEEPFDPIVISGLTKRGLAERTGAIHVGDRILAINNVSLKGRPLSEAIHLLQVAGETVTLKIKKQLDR

APBA2_2, Q99767 = target: T8, APBA2_2, Q99767
T8 sequence (Q99767 654-744, limits assumed, looked up): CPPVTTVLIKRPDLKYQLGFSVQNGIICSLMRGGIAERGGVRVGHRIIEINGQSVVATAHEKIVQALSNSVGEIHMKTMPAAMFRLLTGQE

LIN7A, O14910 = target: T9, LIN7A, O14910
T9 sequence (O14910 103-200, limits assumed, looked up): T7 sequence (Q9HAP6 88-185, limits assumed, looked up) with A2S, I20V, V35I, D42E, Q65H, Q77K, G78D, R89K

FRMPD4, Q14CM0 = target: FRMPD4, Q14CM0
Sequence of FRMPD4, Q14CM0 (Q14CM0 67-160): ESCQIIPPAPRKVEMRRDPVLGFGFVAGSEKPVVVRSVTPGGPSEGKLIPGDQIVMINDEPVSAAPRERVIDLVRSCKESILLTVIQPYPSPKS

NHERF2_2, Q15599 = target: NHERF2_2, Q15599
Sequence of NHERF2_2, Q15599 (Q15599 142-238): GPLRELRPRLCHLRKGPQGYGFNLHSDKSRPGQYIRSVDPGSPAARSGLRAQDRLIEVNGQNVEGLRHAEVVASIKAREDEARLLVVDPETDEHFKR

SCRIB_1, Q14160 = target: SCRIB_1, Q14160
Sequence of SCRIB_1, Q14160 (Q14160 718-814): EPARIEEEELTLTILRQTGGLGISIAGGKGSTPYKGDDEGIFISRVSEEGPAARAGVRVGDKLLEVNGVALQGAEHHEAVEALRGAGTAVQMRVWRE

NOS1, P29475 = target: NOS1, P29475
Sequence of NOS1, P29475 (P29475 9-101): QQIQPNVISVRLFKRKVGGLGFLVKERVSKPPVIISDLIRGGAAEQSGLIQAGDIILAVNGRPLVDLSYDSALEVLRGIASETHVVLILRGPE

HTRA1, Q92743 = target: HTRA1, Q92743
Sequence of HTRA1, Q92743 (Q92743 360-477): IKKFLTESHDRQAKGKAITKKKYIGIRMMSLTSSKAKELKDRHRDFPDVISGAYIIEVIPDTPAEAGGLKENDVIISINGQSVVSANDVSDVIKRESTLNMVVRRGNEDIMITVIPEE

SNTA1, Q13424 = target: T10, SNTA1, Q13424
T10 sequence (Q13424 82-180, limits assumed, looked up): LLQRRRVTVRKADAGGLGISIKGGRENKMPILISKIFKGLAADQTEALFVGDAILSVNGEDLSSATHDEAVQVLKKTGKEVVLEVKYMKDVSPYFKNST

PARD3B_1, Q8TEW8 = target: T11, PARD3B_1, Q8TEW8
T11 sequence (Q8TEW8 196-299, limits assumed, looked up): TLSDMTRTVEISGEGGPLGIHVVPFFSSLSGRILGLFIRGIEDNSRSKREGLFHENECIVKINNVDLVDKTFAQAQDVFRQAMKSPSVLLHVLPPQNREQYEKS

PDLIM1, O00151 = target: PDLIM1, O00151
Sequence of PDLIM1, O00151 (O00151 1-87): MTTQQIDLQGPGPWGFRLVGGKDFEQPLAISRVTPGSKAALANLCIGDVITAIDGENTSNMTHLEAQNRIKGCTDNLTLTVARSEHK

DLG3_3, Q92796 = target: T12, DLG3_3, Q92796
T12 sequence (Q92796 374-475, limits assumed, looked up): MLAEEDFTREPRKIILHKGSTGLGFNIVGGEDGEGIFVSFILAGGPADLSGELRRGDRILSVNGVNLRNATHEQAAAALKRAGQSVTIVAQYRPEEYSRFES

CASK, O14936 = target: CASK, O14936
Sequence of CASK, O14936 (O14936 487-570): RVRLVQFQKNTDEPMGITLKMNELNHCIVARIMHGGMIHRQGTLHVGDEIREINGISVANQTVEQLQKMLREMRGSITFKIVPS

[1] = plain residues with an end cap or a label only (N-terminal biotin on a linker: ahx)
[2] = plain residues with an end cap or a label only (N-terminal biotin on a linker: ttds)

Sequence of MAGI2_2, Q86UL8 (Q86UL8 410-522): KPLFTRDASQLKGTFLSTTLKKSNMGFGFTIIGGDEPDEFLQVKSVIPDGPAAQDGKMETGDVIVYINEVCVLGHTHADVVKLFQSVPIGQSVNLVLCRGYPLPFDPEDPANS

ADENEQVSAV [RAPGEF6, Q8TEU7]
pKd (MAGI2_2, Q86UL8; [1]): below the threshold | pKd (ARHGEF11, O15085; [1]): 4.06 | pKd (MPP2, Q14168; [1]): below the threshold | pKd (SIPA1L2, Q9P2F8; [1]): below the threshold | pKd (LNX2_3, Q8N448; [1]): below the threshold | pKd (DVL3, Q92997; [1]): below the threshold | pKd (HTRA2, O43464; [1]): below the threshold | pKd (ARHGAP21, Q5T5U3; [1]): below the threshold | pKd (IL16_1, Q14005; [1]): 4.23 | pKd (LIN7B, Q9HAP6; [1]): below the threshold | pKd (MAST1, Q9Y2H9; [1]): 4.05 | pKd (GRASP, Q7Z6J2; [1]): 4.66 | pKd (GRIP2_6, Q9C0E4; [1]): below the threshold | pKd (APBA2_2, Q99767; [1]): below the threshold | pKd (LIN7A, O14910; [1]): below the threshold | pKd (FRMPD4, Q14CM0; [1]): below the threshold | pKd (NHERF2_2, Q15599; [1]): below the threshold | pKd (SCRIB_1, Q14160; [1]): 3.65 | pKd (NOS1, P29475; [1]): 3.61 | pKd (HTRA1, Q92743; [1]): 3.94 | pKd (SNTA1, Q13424; [1]): 3.64 | pKd (PARD3B_1, Q8TEW8; [1]): below the threshold | pKd (PDLIM1, O00151; [1]): below the threshold | pKd (DLG3_3, Q92796; [1]): below the threshold | pKd (CASK, O14936; [1]): below the threshold

PKMKLNETSF [SHKBP1, Q8TBC3]
pKd (MAGI2_2, Q86UL8; [1]): below the threshold | pKd (ARHGEF11, O15085; [1]): below the threshold | pKd (MPP2, Q14168; [1]): below the threshold | pKd (SIPA1L2, Q9P2F8; [1]): below the threshold | pKd (LNX2_3, Q8N448; [1]): below the threshold | pKd (DVL3, Q92997; [1]): below the threshold | pKd (HTRA2, O43464; [1]): below the threshold | pKd (ARHGAP21, Q5T5U3; [1]): 3.5 | pKd (IL16_1, Q14005; [1]): below the threshold | pKd (LIN7B, Q9HAP6; [1]): below the threshold | pKd (MAST1, Q9Y2H9; [1]): 4.32 | pKd (GRASP, Q7Z6J2; [1]): 3.88 | pKd (GRIP2_6, Q9C0E4; [1]): below the threshold | pKd (APBA2_2, Q99767; [1]): below the threshold | pKd (LIN7A, O14910; [1]): below the threshold | pKd (FRMPD4, Q14CM0; [1]): below the threshold | pKd (NHERF2_2, Q15599; [1]): 4.32 | pKd (SCRIB_1, Q14160; [1]): 4.31 | pKd (NOS1, P29475; [1]): below the threshold | pKd (HTRA1, Q92743; [1]): below the threshold | pKd (SNTA1, Q13424; [1]): below the threshold | pKd (PARD3B_1, Q8TEW8; [1]): below the threshold | pKd (PDLIM1, O00151; [1]): 3.51 | pKd (DLG3_3, Q92796; [1]): below the threshold | pKd (CASK, O14936; [1]): below the threshold

FVETQHQTQV [FAT3, Q8TDW7]
pKd (MAGI2_2, Q86UL8; [2]): 4.02 | pKd (ARHGEF11, O15085; [2]): 4.22 | pKd (MPP2, Q14168; [2]): below the threshold | pKd (SIPA1L2, Q9P2F8; [2]): below the threshold | pKd (LNX2_3, Q8N448; [2]): below the threshold | pKd (DVL3, Q92997; [2]): 3.65 | pKd (HTRA2, O43464; [2]): below the threshold | pKd (ARHGAP21, Q5T5U3; [2]): below the threshold | pKd (IL16_1, Q14005; [2]): below the threshold | pKd (LIN7B, Q9HAP6; [2]): below the threshold | pKd (MAST1, Q9Y2H9; [2]): 4.8 | pKd (GRASP, Q7Z6J2; [2]): 3.69 | pKd (GRIP2_6, Q9C0E4; [2]): below the threshold | pKd (APBA2_2, Q99767; [2]): below the threshold | pKd (LIN7A, O14910; [2]): below the threshold | pKd (FRMPD4, Q14CM0; [2]): below the threshold | pKd (NHERF2_2, Q15599; [2]): below the threshold | pKd (SCRIB_1, Q14160; [2]): below the threshold | pKd (NOS1, P29475; [2]): 3.95 | pKd (HTRA1, Q92743; [2]): below the threshold | pKd (SNTA1, Q13424; [2]): 4.09 | pKd (PARD3B_1, Q8TEW8; [2]): below the threshold | pKd (PDLIM1, O00151; [2]): below the threshold | pKd (DLG3_3, Q92796; [2]): 3.58 | pKd (CASK, O14936; [2]): below the threshold

SRSRRRETAL [HPV33-E6, P06427]
pKd (MAGI2_2, Q86UL8; [2]): 5.31 | pKd (ARHGEF11, O15085; [2]): 4.25 | pKd (MPP2, Q14168; [2]): below the threshold | pKd (SIPA1L2, Q9P2F8; [2]): below the threshold | pKd (LNX2_3, Q8N448; [2]): below the threshold | pKd (DVL3, Q92997; [2]): below the threshold | pKd (HTRA2, O43464; [2]): 3.46 | pKd (ARHGAP21, Q5T5U3; [2]): 3.45 | pKd (IL16_1, Q14005; [2]): below the threshold | pKd (LIN7B, Q9HAP6; [2]): 3.72 | pKd (MAST1, Q9Y2H9; [2]): 4.78 | pKd (GRASP, Q7Z6J2; [2]): 3.49 | pKd (GRIP2_6, Q9C0E4; [2]): below the threshold | pKd (APBA2_2, Q99767; [2]): below the threshold | pKd (LIN7A, O14910; [2]): below the threshold | pKd (FRMPD4, Q14CM0; [2]): 3.87 | pKd (NHERF2_2, Q15599; [2]): 3.97 | pKd (SCRIB_1, Q14160; [2]): 5.66 | pKd (NOS1, P29475; [2]): 4.03 | pKd (HTRA1, Q92743; [2]): 3.48 | pKd (SNTA1, Q13424; [2]): 4.66 | pKd (PARD3B_1, Q8TEW8; [2]): 3.43 | pKd (PDLIM1, O00151; [2]): below the threshold | pKd (DLG3_3, Q92796; [2]): 5.07 | pKd (CASK, O14936; [2]): below the threshold
